Laboratory results from patent US20100098709A1 (AstraZeneca / MedImmune, published 2010).

Assays:
[1] = molecular target: T1, HIS FLAG tagged human IL-6 (human, UniProt P05231 30-212); test: phage ELISA, antigen on anti-FLAG plate
T1 construct: also called HIS FLAG IL-6; FLAG-IL-6

[2] = molecular target: T2, FLAG HIS tagged Hyper IL-6; test: phage ELISA, antigen on anti-FLAG plate
T2 construct: also called HIS FLAG Hyper IL-6

[3] = molecular target: T3, FLAG HIS tagged soluble IL-6Ra (human, UniProt P08887 20-358, limits assumed); test: phage ELISA, antigen on anti-FLAG plate
T3 construct: the key was followed; also called HIS FLAG sIL-6R; FLAG-sIL-6R
T3 sequence: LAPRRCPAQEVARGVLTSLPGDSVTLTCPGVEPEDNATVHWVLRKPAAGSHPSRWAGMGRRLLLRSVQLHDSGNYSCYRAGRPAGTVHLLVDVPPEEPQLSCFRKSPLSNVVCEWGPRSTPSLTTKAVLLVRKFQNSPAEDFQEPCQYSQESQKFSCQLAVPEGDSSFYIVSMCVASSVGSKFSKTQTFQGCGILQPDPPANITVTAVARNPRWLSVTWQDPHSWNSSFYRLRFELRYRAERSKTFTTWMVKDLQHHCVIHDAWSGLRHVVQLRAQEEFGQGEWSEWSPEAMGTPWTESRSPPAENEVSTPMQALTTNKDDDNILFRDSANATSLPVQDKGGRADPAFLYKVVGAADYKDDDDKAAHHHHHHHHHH

[4] = molecular target: T4, Complex 2: IL-6/HIS FLAG sIL-6R (human, UniProt P05231 30-212; P08887 20-358, limits assumed); test: phage ELISA, antigen on anti-FLAG plate
T4 construct: Non-covalent complex made by pre-incubating the two proteins; Untagged IL-6 was bought; also called IL-6/sIL-6R complex consisting of untagged ligand and FLAG tagged receptor

[5] = molecular target: T5, Complex 1: HIS FLAG IL-6/sIL-6R (human, UniProt P05231 30-212; P08887 20-358, limits assumed); test: phage ELISA, antigen on anti-FLAG plate
T5 construct: Non-covalent complex made by pre-incubating the two proteins; The untagged sIL-6R was bought; also called IL-6/sIL-6R complex consisting of FLAG tagged ligand and untagged receptor

[6] = molecular target: T1, HIS FLAG tagged human IL-6; test: phage ELISA
[7] = molecular target: T3, FLAG HIS tagged soluble IL-6Ra; test: phage ELISA
[8] = molecular target: T6, biotinylated anti-FLAG monoclonal antibody (Sigma F9291); test: phage ELISA, anti-FLAG treated plate alone
T6 construct: Control coat of the phage ELISA plates (streptavidin plate treated with the anti-FLAG antibody, then MPBS only); also called anti FLAG antibody treated plates alone

B1: Antibody 5 scFv (scFv, V domains shown)
VH: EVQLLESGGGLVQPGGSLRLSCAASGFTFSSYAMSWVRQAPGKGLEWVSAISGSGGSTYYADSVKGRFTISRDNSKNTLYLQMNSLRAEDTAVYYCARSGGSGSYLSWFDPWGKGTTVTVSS
VL: QSVLTQPPSVSGAPGQRVTISCTGSSSNIGAGYDVHWYQQLPGTAPKLLIYGNSNRPSGVPDRFSGSKSGTSASLAITGLQAEDEADYYCQSYDSSLSGWVFGGGTKVTVLG
notes: also called Ab 5
Absorbance (450 nM) [1]: 0.065 | Absorbance (450 nM) [2]: 0.833 | Absorbance (450 nM) [3]: 0.061 | Absorbance (450 nM) [4]: 0.747 | Absorbance (450 nM) [5]: 0.331 | binding result [6]: no binding | binding result [7]: no binding | Absorbance (450 nM) [8]: 0.062
